From the supplement of paper PMC10126150
± gives the standard deviation of the averaged measurements.

System: ATP
Test: switch fluorescence ratio, 500 uM ATP over buffer (Cy3 cluster intensity, sum of 5 cycles each) (fold (ratio)); higher = stronger signal-on switching upon ATP binding; sequences stand for … in TCGTCGGCAGCGTCAGATGTGTATAAGAGACAGTTTTTTTTTTTTTTTTTTTTTTTTT…TC
Conditions: aptamer strand: ATP DNA aptamer (quencher-CACCTGGGGGAGTATTGCGGAGGAAGG + anchor), 100 nM annealed; ATP concentration: 500 uM
How it was run: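 The quencher-labelled ATP aptamer, at 100 nM, was annealed to Cy3-labelled switching-strand clusters on a modified Illumina MiSeq flow-cell. The clusters were imaged in selection buffer, then after 15 min with 500 uM ATP at 22 °C, and this buffer/ATP cycle ran five times with NaOH stripping and re-annealing between runs. Per-cluster fluorescence ratios, summed target-cycle over summed buffer-cycle Cy3 intensity, were averaged per switch-domain sequence. Clusters outside 100-1000 RFU were excluded.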
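Also: ATP exposure 15 min at 22 °C before imaging.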

Sequence	switch fluorescence ratio
CATTGGGTTT	0.975 ± 0.052
TAAATTTGAC	0.996 ± 0.036
ATGGCTTGGT	0.99 ± 0.025
AAAAGAGGGT	1.03 ± 0.048
CAAATGGGAT	0.9951 ± 0.0099
AATGCCTTTT	1.04 ± 0.037
AAGGATTAAC	0.985 ± 0.032
GTGGGTATGT	0.983 ± 0.017
TTATGTGGGG	0.993 ± 0.033
TAACGGACGT	1.01 ± 0.054
AGGGATCGTC	0.987 ± 0.014
AGAAGGTTTG	0.963 ± 0.01
TCCGTTGATA	1.165 ± 0.01
GGCGGAGAGG	1.08 ± 0.022
ATAACACTTC	1.03 ± 0.015
CATGAAACAT	1.06 ± 0.048
TCTGGAAGGC	1.29 ± 0.25
CTTAATTTTT	0.98 ± 0.032
TTTTGAGATG	0.999 ± 0.024
ATTGCGATTC	1.159 ± 0.01
TGATAACCGC	1.1 ± 0.039
ATAATCTGGT	0.9965 ± 0.0049
GGGTATGGCC	1.01 ± 0.025

Sequence	switch fluorescence ratio
ATTGGTTTCG	0.9835 ± 0.0051
GCACCTCAAT	1.25 ± 0.037
GGTTTCGTTG	1 ± 0.046
TAAGGTACGA	1.052 ± 0.0032
CTATAGTCAA	1.38 ± 0.026
GCAAGGTAGC	1.07 ± 0.011
CTTTGGCCGG	1.011 ± 0.0087
TGGGACCGGG	1 ± 0.059
ATTTGGATCT	0.9725 ± 0.0068
GATAAAGTTA	0.992 ± 0.013
TTAAAAATGA	1.02 ± 0.021
CGGTTGTGAG	1.01 ± 0.031
CGCGGGGGCG	0.991 ± 0.025
TCGGCGGTGG	0.963 ± 0.05
ATATGTGGAA	1.015 ± 0.01
GGACCGCATT	2.5 ± 0.22
CGGGGGAAAA	1.03 ± 0.054
CTCTTGGGGT	0.997 ± 0.021
CATGTTAGGT	1.01 ± 0.025
GTTGGAAGAT	1.03 ± 0.015
CATTCGGGTG	1.11 ± 0.027
GCTACCTGGA	1.19 ± 0.016
ATTATGCTGC	0.977 ± 0.033

Sequence	switch fluorescence ratio
GATTGTACTA	0.998 ± 0.019
ATGGCGATCA	0.999 ± 0.0078
TTATGGGGTT	0.999 ± 0.043
GTATAAAAGT	1.01 ± 0.03
GAGCGGCTTC	1.027 ± 0.0097
AACCAGGACT	1.02 ± 0.013
AAAACTTTTA	1.02 ± 0.04
TCACAATGCG	1.06 ± 0.064
CCTGTTTCAG	1.05 ± 0.018
AAGATTCGCG	0.9914 ± 0.0014
CTTCAATTAT	1.01 ± 0.029
GTTGGGTATA	0.996 ± 0.014
GGTTGTGGGC	0.992 ± 0.019
ATAATGGCCT	1.02 ± 0.026
CATTTTGAGC	0.996 ± 0.014
GGCCCGTCGG	1.03 ± 0.0047
ATCGGGTCGG	1.01 ± 0.03
TGCCAGTTCG	1.02 ± 0.025
GGCCGGGGTG	1.18 ± 0.032
GCTTCTGCGT	1.02 ± 0.033
AAGGTTGATG	0.982 ± 0.02
CGTTGTTGTT	0.989 ± 0.045
TTGAGTGTTG	1.01 ± 0.049

Sequence	switch fluorescence ratio
TTTCGAAACG	1.12 ± 0.21
GCAGGCACGG	0.976 ± 0.028
TTATAAAGGT	1.03 ± 0.079
CGTATTTATT	1.01 ± 0.021
AATGGAATTT	1.03 ± 0.066
TTTTCATTAT	1.046 ± 0.0066
TGCAAGAAGG	0.9832 ± 0.0053
CATATTTGAC	1.04 ± 0.074
TTAATCCAGT	1.02 ± 0.035
TTGGGCGGCG	0.982 ± 0.074
GCAATATTTC	2.31 ± 0.35
TGAATGAGTT	1.02 ± 0.03
TAGAATGGCT	0.9907 ± 0.0057
TTAAATAGCG	0.982 ± 0.036
GTGTCCATTG	0.998 ± 0.074
CTTTTTTTGT	0.995 ± 0.025
ATTGGGGTTC	1.01 ± 0.067
CAATTTTGTG	0.9807 ± 0.007
TATTCAGTGC	1.01 ± 0.046
CGGAGCTACG	1.49 ± 0.04
AGCTGCAGTG	1.02 ± 0.019
TCATAGGATT	0.995 ± 0.04
AGGGGGTCAC	1 ± 0.026

Sequence	switch fluorescence ratio
TCTCACGGGG	1.29 ± 0.33
GCGATGGAAT	1.1282 ± 6e-05
CTATGGTATC	1.02 ± 0.015
TGGGCTTAAG	1.02 ± 0.026
ACAGGATGGT	0.998 ± 0.024
TGCTGGGGTA	0.99 ± 0.024
GTTTAAAGGG	0.998 ± 0.013
GTGTTCAGGG	1.02 ± 0.021
TCATGCCAAC	1.03 ± 0.011
TTCATCGGCA	1.35 ± 0.47
ATTTACATTT	1.02 ± 0.011
GGGGTCGGCT	0.974 ± 0.077
GCTATTTTTG	0.999 ± 0.04
GTTAAGTAGC	0.971 ± 0.025
GCGTGGGAGG	1.018 ± 0.0053
TGTTTTAATG	0.988 ± 0.011
TGACATAGGA	1.001 ± 0.0029
TCTGGATTGG	0.961 ± 0.029
CATCGTGTGT	0.972 ± 0.011
GATTTAGGGA	0.995 ± 0.039
CGTGTCTTGA	1.027 ± 0.0037
CCCGCATGAT	5.66 ± 0.2
GGGGGATTGA	1.0228 ± 0.00054

Sequence	switch fluorescence ratio
GAGGAGCTGT	0.999 ± 0.026
AGGAGATACC	1.03 ± 0.049
GGACGTTTTT	1.01 ± 0.015
AGGACCAGTT	1.03 ± 0.055
GAAAATGTTG	0.991 ± 0.033
AAAAATAGTG	1.036 ± 0.0098
TTGTTACACA	1.05 ± 0.043
GGTTCAACAT	0.985 ± 0.049
TTTTATTCGT	1.01 ± 0.025
CGCGCCTGTG	1.17 ± 0.23
AAGTATTGGT	1.02 ± 0.041
ATCGTTGAGG	0.986 ± 0.023
CGGGCATCGA	0.995 ± 0.061
ATACAAGTCT	1.03 ± 0.059
GATTTGAGGG	0.973 ± 0.032
GGGCTATAGA	0.9984 ± 0.0095
AAGGAGAAGA	0.993 ± 0.01
AAAGTTACTG	1.03 ± 0.077
CCGAACTGGT	1.1 ± 0.05
CAGTTAGATT	1.01 ± 0.028
GAGATGGTTT	0.997 ± 0.024
GCCTACATTA	0.997 ± 0.022
AGTCTGGGGC	0.942 ± 0.023

Sequence	switch fluorescence ratio
CGTTTAGGTT	1 ± 0.017
GCTTGGAGGG	0.983 ± 0.027
GGGATGCTCT	1.01 ± 0.017
TGCGTTAGCC	1.035 ± 0.0025
CATAGAGGGT	0.951 ± 0.03
TCAGGGACGA	1.02 ± 0.055
TCAGCGGTTT	0.96 ± 0.055
TTAAGCTGGT	0.985 ± 0.022
GCTGGGAGGA	1.02 ± 0.04
GCGGCGCTTA	1.02 ± 0.016
GATTGAATTG	0.948 ± 0.027
TTATGCGGTG	1.0223 ± 0.00072
GCTTTCATTG	1.014 ± 0.0046
CTTTCTTG	1.01 ± 0.043
AATGCAGGTA	1.03 ± 0.027
CGTATTTTTT	1.01 ± 0.032
TTTCCTGGCG	1.024 ± 0.0089
AGGAGGTGGC	1.03 ± 0.017
AGTTGAACCC	0.9872 ± 0.0016
